# Test results reported in patent US20050227302A1, “Induction of apoptosis via ARTS-IAP complexes” (priority 2004, published 2005).
# Key:
# HL-60 cells = test: Caspase 3 activity assay in ARTS-transfected HL-60 cells; type: cell-based
# Description: K562 and HL-60 cells were grown in RPMI 1640 medium. A549, COS-7 cells were grown in Dulbecco's modified Eagle medium (DMEM) with 4.5 grams/liter (g/L) D-glucose. All cells were grown at 37° C. in a 5% CO2 atmosphere. All media were supplemented with 10% fetal calf serum (FCS), penicillin (100 U/ml), streptomycin (100 micrograms (μg)/ml) and […] millimolar [mM]) (Biological Industries, Israel). pEF1-AU5 and pEF1-AU5-ARTS constructs were used for all ARTS transient transfection experiments. An AU5 tag was attached to the N' terminus of ARTS as described in ([…] et al, Nat Cell Biol 2: 915-921, 2000). The […] construct was generated by replacing three amino acids ([…]) at the GTP binding site, using site-directed mutagenesis (QuickChangeTM, Stratagene) with the primer: [NT] No: 1). COS-7, K562 and HL-60 cells were transiently transfected using electroporation (EasyjectTM plus-Equibio). A549 cells were transiently transfected using lipofectaminTM (Invitrogen) according to the manufacturer's protocol. The following apoptotic agents were used: TGF-beta (10 ng/ml) for 24 hours in medium containing 1% FCS; […] etoposide for 2 or 16 hours (Sigma); staurosporine (STS) ([…]) for 0-3 hours (Sigma); and arabinoside-c (ara-C, cytosar) (Pharmacia) at […] for 4 hours. In the case of transiently transfected cells, agents were added forty hours after transfections. […]
# XIAP [1] = biological target: T1, XIAP (Homo sapiens, UniProt P98170); test: GST pull-down assay of ARTS and XIAP; type: binding
# T1 construct: made in house; host or cells: bacteria (pGEX-XIAP plasmid obtained from Dr. Colin S. Duckett)
# From the text: For the glutathione-S-transferase (GST)-pull down assays, ARTS was subcloned into the pGEX 4T™ (Pharmacia Biotech) construct; GST-ARTS fusion protein was generated by Polymerase Chain Reaction (PCR) using the following primers: • BamHI-5′-[…]-3′ (SEQ ID No: 4) and • EcoRI-5′ […]-3′ (SEQ ID No: 5) and cloned into BamHI and EcoRI sites in pGEX 4T. Preparation of Beads
# For in vitro binding studies, recombinant GST-ARTS or GST-XIAP fusion proteins were purified from bacteria. After sonication, 0.1% Triton X-100 and protease inhibitors (Mini-Complete™, Roche) were added to the bacterial extract followed by 10,000 rotations per minute (RPM) centrifugation. Supernatants of bacterial extracts were collected and incubated in the presence of glutathione-Sepharose 4B beads (Amersham Biosciences) for 30 minute at 4° C. The beads were washed three times.
# Cells were lysed in RIPA buffer (150 mM NaCl, 50 mM Tris-HCl (pH 8), 1% NP-40, 0.1% SDS, 0.5% deoxycholate acid containing protease inhibitors (mini Complete, Roche)). Samples were divided into two tubes; one was rotated for 4 h at 4° C. with GST-ARTS fusion protein coupled with the glutathione beads, or GST-XIAP fusion protein. The second tube was incubated with glutathione beads alone (negative control). Samples were centrifuged at 4000-RPM at 4° C. for 4 minute and washed five times in lysis buffer, then boiled in sample buffer for 5 minutes to elute bound proteins Proteins were separated on 12.5% SDS-PAGE gel followed by Western blot analysis using monoclonal anti-ARTS antibody (Sigma), monoclonal anti-XIAP antibody (BD Transduction Laboratories) or monoclonal anti-myc antibody (Clontech).
# COS-7 cells = test: Apoptosis assays (TUNEL, anti-H2A.X) in COS-7 cells; type: cell-based, African Green Monkey; conditions: COS-7 cells stably transfected with an ARTS construct
# Description: Apoptotic cells were detected using the anti-H2A.X antibody (Upstate; Paull, et al., 2000) or TUNEL. For TUNEL assays, COS-7 cells were transiently transfected with AU5-ARTS, AU5-ARTSΔC, AU5-ARTSmGTP and AU5-H5. Twenty-four hours after transfection, the cells were treated with staurosporine (STS) ([…]) for 1 or 3 hours, then fixed and permeabilized. Apoptosis levels were determined using the TUNEL. In situ™ cell death detection TMR kit (Roche) according to the manufacturer's protocol. All slides were coded and experiments were performed in a blind manner.
# (§1) Stably transfected COS-7 pE-ARTS cells were generated using the pEF1-IRES vector (Hobbs S et al, Biochem Biophys Res Commun 252: 368-372, 1998). The construct contains an EF-1 promoter followed by a multi cloning site, an EMC (Encephalomyocarditis virus) internal ribosome entry sites (IRES), and a puromycin resistance gene. AU5-tagged ARTS was inserted into the XhoI site downstream of the EF-1 promoter. The construct was stably transfected into COS-7 cells. The cells were maintained in medium containing 4 μg/ml puromycin.
# XIAP [2] = test: XIAP protein levels by Western blot in COS-7 cells; type: cell-based, African Green Monkey
# Description: Protein extracts were prepared with lysis buffer (150 mM NaCl, 50 mM Tris-HCl (pH 8), 1% NP-40, 0.5% deoxycholate acid) with protease inhibitors. Lysates containing equal amounts of total protein were pre-cleared overnight with 1 mg mouse IgG (Sigma) coupled with protein A/G-Sepharose mix (Amersham Biosciences) and the beads centrifuged. Supernatants were immuno-precipitated using 5 μl of anti-ARTS antibody for 4 h, anti-XIAP antibody, rabbit anti-myc antibody, or mouse IgG (negative control). Protein A/G Sepharose beads were added for 1 hour and washed four times with PBS. Antibodies against XIAP (as above), Myc (Santa Cruz), or anti-ARTS (NT) antibodies directed against the common N′ terminus of ARTS and H5 (ProSci Incorporated) were used for Western blot.
# as §1
# Cells were treated for 2 hours with […] of the proteasome inhibitor (MG132, Calbiochem) prior to induction of apoptotis.
# T1 sequence (P98170 whole entry): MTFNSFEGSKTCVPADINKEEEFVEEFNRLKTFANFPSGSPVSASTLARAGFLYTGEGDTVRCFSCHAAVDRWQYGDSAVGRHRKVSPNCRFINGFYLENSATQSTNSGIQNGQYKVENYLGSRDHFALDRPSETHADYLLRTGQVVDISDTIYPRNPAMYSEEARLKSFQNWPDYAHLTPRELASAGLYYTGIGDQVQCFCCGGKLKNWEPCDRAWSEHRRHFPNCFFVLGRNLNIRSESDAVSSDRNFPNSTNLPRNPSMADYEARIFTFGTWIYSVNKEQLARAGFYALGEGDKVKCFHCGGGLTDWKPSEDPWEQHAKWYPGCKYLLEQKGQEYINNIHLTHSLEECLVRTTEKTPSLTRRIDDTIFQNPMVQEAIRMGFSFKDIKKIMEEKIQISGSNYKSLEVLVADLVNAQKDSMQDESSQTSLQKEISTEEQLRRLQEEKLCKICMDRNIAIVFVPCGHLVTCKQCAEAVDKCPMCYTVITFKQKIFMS
molecule,measurement,setting,value
"AU5-ARTS (other, Expressed in transfected COS-7 cells and used as lysate or stained in cells; also called pEF1-AU5-ARTS; AU5-tagged ARTS; not shown: AU5 tag attached to the N' terminus of ARTS) MIKRFLEDTTDDGELSKFVKDFSGNASCHPPEAKTWASRPQVPEPRPQAPDLYDDDLEFRPPSRPQSSDNQQYFCAPAPLSPSARPRSPWGKLDPYDSSEDDKEYVGFATLPNQVHRKSVKKGFDFTLMVAGESGLGKSTLVNSLFLTDLYRDRKLLGAEERIMQTVEITKHAVDIEEKGVRLRLTIVDTPGFGDAVNNTECWKPVAEYIDQQFEQYFRDESGLNRKNIQDNRVHCCLYFISPFGHGYGPSLRLLAPPGAVKGTGQEHQGQGCH",caspase-3 activity,"HL-60 cells; expression of ARTS in the absence of pro-apoptotic stimuli, HL-60 cells",increased caspase-3 activity
same,caspase-3 activity,"HL-60 cells; over-expression of ARTS, HL-60 cells treated with ara-C",increased caspase-3 activity
same,binding to GST-XIAP,"XIAP [1]; lysates of COS-7 cells transfected with AU5-tagged construct, Western blot anti-AU5",bound to XIAP
same,binding of XIAP to GST-ARTS,"XIAP [1]; lysates of COS-7 cells transfected with pcDNA3 mycXIAP, Western blot anti-XIAP and anti-Myc",XIAP bound to ARTS
same,apoptotic marker H2A.X,COS-7 cells,high levels of the apoptotic marker H2A.X
same,amount of XIAP,XIAP [2]; COS-7 cells transiently transfected with pcDNA3-myc-XIAP and AU5-ARTS versus XIAP alone,significantly decreased
same,levels of XIAP,XIAP [2]; COS-7 pE-ARTS cells stably expressing high levels of ARTS,significantly reduced levels of XIAP
same,XIAP protein levels,"XIAP [2]; transiently transfected COS-7 cells treated with 1 mM staurosporin (STS) for 0, 2 or 5 hours",reduced XIAP protein levels
